Experiments:
[1] = biological target: T1, FtsL, full-length (Escherichia coli divisome transmembrane protein) (Escherichia coli, UniProt P0AEN4 1-121); assay: pull-down
T1 sequence (looked up): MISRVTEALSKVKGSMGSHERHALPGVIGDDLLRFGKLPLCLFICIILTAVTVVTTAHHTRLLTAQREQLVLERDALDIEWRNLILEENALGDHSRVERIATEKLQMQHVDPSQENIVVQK

[2] = biological target: FtsQ, full-length (Escherichia coli divisome transmembrane protein) (Escherichia coli, UniProt P06136 1-276); assay: pull-down
Sequence of FtsQ, full-length (Escherichia coli divisome transmembrane protein) (P06136 whole entry): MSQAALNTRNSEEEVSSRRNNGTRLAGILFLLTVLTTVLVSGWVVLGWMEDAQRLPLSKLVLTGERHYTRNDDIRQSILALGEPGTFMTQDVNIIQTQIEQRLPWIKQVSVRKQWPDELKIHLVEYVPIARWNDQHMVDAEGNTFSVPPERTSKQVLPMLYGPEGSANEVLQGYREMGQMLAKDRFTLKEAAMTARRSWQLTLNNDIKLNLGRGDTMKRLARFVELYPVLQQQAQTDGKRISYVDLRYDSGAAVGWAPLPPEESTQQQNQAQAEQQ

B1: FtsB, full-length, His-tagged (Escherichia coli divisome transmembrane protein) (natural protein, UniProt P0A6S5 1-103, looked up)
chain: MGKLTLLLLAILVWLQYSLWFGKNGIHDYTRVNDDVAAQQATNAKLKARNDQLFAEIDDLNGGQEALEERARNELSMTRPGETFYRLVPDASKRAQSAGQNNR
- binding result [1]: binds
- binding result [2]: binds

Reference: publication PMC9352969 (The Journal of Biological Chemistry, 2022)
